# Results from IntAct's records for PubMed 28838205.
# B1: WW domain-binding protein 4 (Homo sapiens), O75554 (parent)
# chain: MADYWKSQPKKFCDYCKCWIADNRPSVEFHERGKNHKENVAKRISEIKQKSLDKAKEEEKASKEFAAMEAAALKAYQEDLKRLGLESEILEPSITPVTSTIPPTSTSNQQKEKKEKKKRKKDPSKGRWVEGITSEGYHYYYDLISGASQWEKPEGFQGDLKKTAVKTVWVEGLSEDGFTYYYNTETGESRWEKPDDFIPHTSDLPSSKVNENSLGTLDESKSSDSHSDSDGEQEAEEGGVSTETEKPKIKFKEKNKNSDGGSDPETQKEKSIQKQNSLGSNEEKSKTLKKSNPYGEWQEIKQEVESHEEVDLELPSTENEYVSTSEADGGGEPKVVFKEKTVTSLGVMADGVAPVFKKRRTENGKSRNLRQRGDDQ
# partner: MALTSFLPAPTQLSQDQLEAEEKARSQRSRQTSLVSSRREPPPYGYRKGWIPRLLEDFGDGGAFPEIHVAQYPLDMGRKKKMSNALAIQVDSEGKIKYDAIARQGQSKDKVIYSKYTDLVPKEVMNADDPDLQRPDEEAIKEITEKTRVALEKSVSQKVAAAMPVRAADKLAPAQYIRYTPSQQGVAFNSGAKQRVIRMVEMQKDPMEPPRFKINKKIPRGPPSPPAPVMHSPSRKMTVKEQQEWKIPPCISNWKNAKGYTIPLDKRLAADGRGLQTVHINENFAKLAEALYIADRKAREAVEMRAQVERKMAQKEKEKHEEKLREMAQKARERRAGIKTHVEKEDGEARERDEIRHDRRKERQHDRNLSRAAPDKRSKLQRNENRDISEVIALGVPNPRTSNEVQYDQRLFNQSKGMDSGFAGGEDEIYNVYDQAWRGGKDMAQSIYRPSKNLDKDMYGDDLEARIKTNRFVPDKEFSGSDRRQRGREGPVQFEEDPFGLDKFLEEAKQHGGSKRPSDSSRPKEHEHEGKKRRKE
# B2: WW domain-binding protein 4 (Homo sapiens), O75554 (parent)
# chain: B1 chain
# partner: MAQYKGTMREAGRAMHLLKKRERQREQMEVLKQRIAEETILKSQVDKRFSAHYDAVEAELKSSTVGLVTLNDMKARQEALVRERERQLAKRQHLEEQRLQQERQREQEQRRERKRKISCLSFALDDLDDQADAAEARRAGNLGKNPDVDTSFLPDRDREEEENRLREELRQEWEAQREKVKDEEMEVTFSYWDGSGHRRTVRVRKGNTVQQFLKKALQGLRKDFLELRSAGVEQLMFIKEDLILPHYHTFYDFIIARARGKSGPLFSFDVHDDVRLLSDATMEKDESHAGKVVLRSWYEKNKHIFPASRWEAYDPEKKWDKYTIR
# B3: WW domain-binding protein 4 (Homo sapiens), O75554 (parent)
# chain: B1 chain
# partner: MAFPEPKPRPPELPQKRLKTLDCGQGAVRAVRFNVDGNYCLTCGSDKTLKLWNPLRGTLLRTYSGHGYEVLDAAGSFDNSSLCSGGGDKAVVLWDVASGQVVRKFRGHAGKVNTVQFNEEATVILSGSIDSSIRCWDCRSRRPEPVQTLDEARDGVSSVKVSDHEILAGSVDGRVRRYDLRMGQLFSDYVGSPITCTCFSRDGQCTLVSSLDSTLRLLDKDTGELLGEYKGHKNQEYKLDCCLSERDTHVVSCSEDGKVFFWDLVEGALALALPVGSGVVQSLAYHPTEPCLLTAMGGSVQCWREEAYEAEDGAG
# B4: WW domain-binding protein 4 (Homo sapiens), O75554 (parent)
# chain: B1 chain
# Variants of: B1
# Conditions: with snw1_human SNW1, Q13573
row,Variant,effect of a mutation on the interaction
1,W150A,with no effect

# Variants of: B2
# Conditions: with fa50b_human FAM50B
row,Variant,effect of a mutation on the interaction
1,W150A,with no effect

# Variants of: B3
# Conditions: with wdr83_human WDR83, Q9BRX9
row,Variant,effect of a mutation on the interaction
1,W150A,with no effect

# Variants of: B4
# Conditions: with u520_human SNRNP200, O75643
# u520_human SNRNP200, O75643, sequence (O75643 whole entry): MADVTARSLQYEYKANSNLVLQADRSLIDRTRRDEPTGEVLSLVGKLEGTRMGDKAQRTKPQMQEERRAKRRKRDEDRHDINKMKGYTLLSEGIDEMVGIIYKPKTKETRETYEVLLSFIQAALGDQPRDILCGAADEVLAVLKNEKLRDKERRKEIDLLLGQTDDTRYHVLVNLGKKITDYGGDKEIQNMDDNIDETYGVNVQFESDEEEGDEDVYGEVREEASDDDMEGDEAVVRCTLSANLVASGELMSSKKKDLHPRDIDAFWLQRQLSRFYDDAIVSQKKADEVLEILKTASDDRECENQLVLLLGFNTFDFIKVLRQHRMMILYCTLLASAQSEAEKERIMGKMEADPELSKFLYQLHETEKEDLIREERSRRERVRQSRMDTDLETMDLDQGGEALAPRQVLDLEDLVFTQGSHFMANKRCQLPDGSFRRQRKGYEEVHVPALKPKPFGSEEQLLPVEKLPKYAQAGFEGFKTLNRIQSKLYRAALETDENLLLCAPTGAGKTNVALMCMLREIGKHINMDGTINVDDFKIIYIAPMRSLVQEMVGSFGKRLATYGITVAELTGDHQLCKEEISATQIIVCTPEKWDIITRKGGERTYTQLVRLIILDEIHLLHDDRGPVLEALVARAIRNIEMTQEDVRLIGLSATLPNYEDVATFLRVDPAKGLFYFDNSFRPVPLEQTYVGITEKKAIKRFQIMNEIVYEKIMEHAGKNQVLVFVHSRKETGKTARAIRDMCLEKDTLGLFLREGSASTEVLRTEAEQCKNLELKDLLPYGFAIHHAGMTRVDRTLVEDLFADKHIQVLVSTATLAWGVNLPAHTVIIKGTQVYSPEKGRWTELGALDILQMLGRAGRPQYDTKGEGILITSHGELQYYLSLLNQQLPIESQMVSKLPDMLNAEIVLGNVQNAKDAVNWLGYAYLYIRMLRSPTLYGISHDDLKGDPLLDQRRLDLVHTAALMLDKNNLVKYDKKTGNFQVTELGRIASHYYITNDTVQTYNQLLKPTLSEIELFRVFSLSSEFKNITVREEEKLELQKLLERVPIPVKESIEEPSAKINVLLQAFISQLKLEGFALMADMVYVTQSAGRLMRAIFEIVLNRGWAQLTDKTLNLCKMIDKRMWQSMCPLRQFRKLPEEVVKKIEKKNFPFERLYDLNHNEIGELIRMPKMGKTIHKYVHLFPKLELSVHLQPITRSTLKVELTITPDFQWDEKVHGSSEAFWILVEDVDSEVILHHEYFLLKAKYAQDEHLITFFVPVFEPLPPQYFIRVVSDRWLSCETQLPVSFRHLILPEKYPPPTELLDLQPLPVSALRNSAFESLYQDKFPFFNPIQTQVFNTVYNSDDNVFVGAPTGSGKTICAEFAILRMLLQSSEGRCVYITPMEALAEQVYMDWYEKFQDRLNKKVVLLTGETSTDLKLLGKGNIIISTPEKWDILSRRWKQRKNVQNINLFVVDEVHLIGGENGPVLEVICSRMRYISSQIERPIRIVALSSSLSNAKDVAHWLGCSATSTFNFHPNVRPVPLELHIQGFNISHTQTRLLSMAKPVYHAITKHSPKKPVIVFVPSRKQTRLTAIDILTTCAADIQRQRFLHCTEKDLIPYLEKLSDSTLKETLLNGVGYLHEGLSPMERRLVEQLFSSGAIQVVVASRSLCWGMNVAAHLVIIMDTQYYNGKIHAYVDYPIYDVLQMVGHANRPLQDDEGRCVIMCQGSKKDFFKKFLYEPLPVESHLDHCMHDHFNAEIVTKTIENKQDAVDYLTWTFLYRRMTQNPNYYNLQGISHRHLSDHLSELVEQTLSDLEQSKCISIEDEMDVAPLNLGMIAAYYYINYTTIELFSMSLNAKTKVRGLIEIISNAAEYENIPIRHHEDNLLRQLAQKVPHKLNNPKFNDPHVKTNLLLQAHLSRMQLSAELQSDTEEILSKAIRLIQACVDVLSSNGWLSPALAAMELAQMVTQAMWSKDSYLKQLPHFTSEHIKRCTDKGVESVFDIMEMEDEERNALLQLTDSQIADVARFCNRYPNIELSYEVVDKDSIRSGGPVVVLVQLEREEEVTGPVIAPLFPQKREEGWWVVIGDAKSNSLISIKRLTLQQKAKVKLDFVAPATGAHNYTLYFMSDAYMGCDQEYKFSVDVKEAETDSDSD
row,Variant,effect of a mutation on the interaction
1,W150A,with no effect

# Variants of: B4
# Conditions: with ppih_human PPIH
row,Variant,effect of a mutation on the interaction
1,W150A,with no effect

# Variants of: B4
# Conditions: with sf3b2_human SF3B2, Q13435
# sf3b2_human SF3B2, Q13435, sequence (Q13435 whole entry): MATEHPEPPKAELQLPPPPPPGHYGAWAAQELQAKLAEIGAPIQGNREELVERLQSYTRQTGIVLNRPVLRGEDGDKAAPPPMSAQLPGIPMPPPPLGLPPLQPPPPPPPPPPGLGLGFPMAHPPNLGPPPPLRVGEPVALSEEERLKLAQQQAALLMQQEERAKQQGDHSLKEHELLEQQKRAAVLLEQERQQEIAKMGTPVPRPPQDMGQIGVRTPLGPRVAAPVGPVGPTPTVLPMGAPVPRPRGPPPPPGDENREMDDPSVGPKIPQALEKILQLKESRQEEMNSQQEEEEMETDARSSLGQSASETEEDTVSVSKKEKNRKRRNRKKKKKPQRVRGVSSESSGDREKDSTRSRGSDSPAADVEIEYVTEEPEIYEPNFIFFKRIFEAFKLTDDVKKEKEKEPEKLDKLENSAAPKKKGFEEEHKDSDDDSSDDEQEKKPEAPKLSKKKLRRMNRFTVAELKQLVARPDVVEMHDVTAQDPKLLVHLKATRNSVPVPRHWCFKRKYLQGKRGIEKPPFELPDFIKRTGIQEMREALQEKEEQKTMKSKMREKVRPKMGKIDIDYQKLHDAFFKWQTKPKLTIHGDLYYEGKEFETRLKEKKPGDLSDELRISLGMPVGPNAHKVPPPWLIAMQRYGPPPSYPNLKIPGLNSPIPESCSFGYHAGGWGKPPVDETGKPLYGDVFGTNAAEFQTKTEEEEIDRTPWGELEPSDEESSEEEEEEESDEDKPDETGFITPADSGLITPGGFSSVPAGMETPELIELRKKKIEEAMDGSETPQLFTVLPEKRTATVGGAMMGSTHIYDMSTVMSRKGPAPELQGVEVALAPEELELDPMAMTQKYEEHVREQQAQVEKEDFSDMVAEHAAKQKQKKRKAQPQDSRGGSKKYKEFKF
row,Variant,effect of a mutation on the interaction
1,W150A,with no effect

# Variants of: B4
# Conditions: with zc21a_human ZC2HC1A
row,Variant,effect of a mutation on the interaction
1,W150A,with no effect

# Variants of: B4
# Conditions: with u520_human SNRNP200, O75643
# Remark: another data set of the same source
row,Variant,effect of a mutation on the interaction
1,K358A;R360A,decreasing interaction strength
2,K357E;R359E,decreasing interaction strength

# Variants of: B4
# Conditions: with u520_human SNRNP200, O75643
# Remark: another data set of the same source
row,Variant,effect of a mutation on the interaction
1,K357E;R359E,with no effect
